Usually EC50 stands for the midpoint of the concentration-response curve. Read a high EC50 as a need for much substance.

Residue numbers refer to the chain shown, from its start.

To fix the notation:
B1: PR007142 (bispecific antibody)
light: DIQMTQSPSTLSASVGDRVTVTCRASQSIYIWLAWYQQKPGKAPNLLIYKASSLETGVPSRFSGSGSGTEFTLTISSLQPDDFATYYCQQYYGSSRTFGQGTKVEIKRTVAAPSVFIFPPSDEQLKSGTASVVCLLNNFYPREAKVQWKVDNALQSGNSQESVTEQDSKDSTYSLSSTLTLSKADYEKHKVYACEVTHQGLSSPVTKSFNRGEC
heavy: EVQLVESGGGLVQPGGSLRLSCAASGFTFSSYWMSWVRQAPGKGLEWVANIKQEGSEKYYVDSVKGRFTISRDNAKNSLYLQMNSLRAEDTAVYYCARDRAVAGAFDIWGQGTMVTVSSASTKGPSVFPLAPSSKSTSGGTAALGCLVKDYFPEPVTVSWNSGALTSGVHTFPAVLQSSGLYSLSSVVTVPSSSLGTQTYICNVNHKPSNTKVDKKVEPKSCDKTHTCPPCPAPEAAGAPSVFLFPPKPKDTLMISRTPEVTCVVVDVSHEDPEVKFNWYVDGVEVHNAKTKPREEQYNSTYRVVSVLTVLHQDWLNGKEYKCKVSNKALPAPIEKTISKAKGQPREPQVYTLPPSREEMTKNQVSLTCLVKGFYPSDIAVEWESNGQPENNYKTTPPVLDSDGSFFLYSKLTVDKSRWQQGNVFSCSVMHEALHNHYTQKSLSLSPGGGSGGSEVQLVESGGGLVKPGGSLRLSCAASGFTFSDYYMSWIRQAPGKGLEWVSYISNNGSTIYYADSVKGRFTISRDNAKNSLYLQMNSLRAEDTAVYYCARVRPGGSGNYWDWFDPWGQGTMVTVSS
B2: PR007149 (bispecific antibody)
light: B1 light
heavy: B1 heavy with A477T, A478T, S489N, I491V, M573P
B3: PR007138 (bispecific antibody)
light: B1 light
heavy: B1 heavy with A477V, A478T, S489N, L499Q, N507G, M573P
B4: PR007139 (bispecific antibody)
light: B1 light
heavy: EVQLVESGGGLVQPGGSLRLSCAASGFTFSSYWMSWVRQAPGKGLEWVANIKQEGSEKYYVDSVKGRFTISRDNAKNSLYLQMNSLRAEDTAVYYCARDRAVAGAFDIWGQGTMVTVSSASTKGPSVFPLAPSSKSTSGGTAALGCLVKDYFPEPVTVSWNSGALTSGVHTFPAVLQSSGLYSLSSVVTVPSSSLGTQTYICNVNHKPSNTKVDKKVEPKSCDKTHTCPPCPAPEAAGAPSVFLFPPKPKDTLMISRTPEVTCVVVDVSHEDPEVKFNWYVDGVEVHNAKTKPREEQYNSTYRVVSVLTVLHQDWLNGKEYKCKVSNKALPAPIEKTISKAKGQPREPQVYTLPPSREEMTKNQVSLTCLVKGFYPSDIAVEWESNGQPENNYKTTPPVLDSDGSFFLYSKLTVDKSRWQQGNVFSCSVMHEALHNHYTQKSLSLSPGGGSGGSEVQLVESGGGLVKPGGSLRLSCAASGFTFSDYYMSWIRQAPGKGLEWVSYISSSGSTIDYADSVKGRFTISRDNAKNSLYLQMNSLRAEDTAVYYCAREREEVAGTLDYDNWGQGTLVTVSS
B5: PR007137 (bispecific antibody)
light: B1 light
heavy: B4 heavy with L465V, K467Q, G470R, I491F, S510T, Y563F, N565Y, L571P
B6: PR007130 (bispecific antibody)
light: B1 light
heavy: EVQLVESGGGLVQPGGSLRLSCAASGFTFSSYWMSWVRQAPGKGLEWVANIKQEGSEKYYVDSVKGRFTISRDNAKNSLYLQMNSLRAEDTAVYYCARDRAVAGAFDIWGQGTMVTVSSASTKGPSVFPLAPSSKSTSGGTAALGCLVKDYFPEPVTVSWNSGALTSGVHTFPAVLQSSGLYSLSSVVTVPSSSLGTQTYICNVNHKPSNTKVDKKVEPKSCDKTHTCPPCPAPEAAGAPSVFLFPPKPKDTLMISRTPEVTCVVVDVSHEDPEVKFNWYVDGVEVHNAKTKPREEQYNSTYRVVSVLTVLHQDWLNGKEYKCKVSNKALPAPIEKTISKAKGQPREPQVYTLPPSREEMTKNQVSLTCLVKGFYPSDIAVEWESNGQPENNYKTTPPVLDSDGSFFLYSKLTVDKSRWQQGNVFSCSVMHEALHNHYTQKSLSLSPGGGSGGSEVQLLESGGGLVQPGGSLRLSCAASGFTFSNYAMSWFRQPPETGLKWVSSIDASGGDTYYADSVKGRFTISRDNSKNTLYLQMNSLRAEDTAVYYCAKEGSHGTDDSHYDVDVWGQGTTVTVSS
B7: PR007133 (bispecific antibody)
light: B1 light
heavy: B4 heavy with V459E, I491F, T511I, I512T, S517A, T523N, E556A, Y563F
B8: PR007135 (bispecific antibody)
light: B1 light
heavy: B4 heavy with I491F, S507G, T511I, A551S, E556A, Y563F, N565Y
B9: PR007136 (bispecific antibody)
light: B1 light
heavy: B4 heavy with I491F, I512Q, E556P, Y563F, L571P
B10: PR007132 (bispecific antibody)
light: B1 light
heavy: EVQLVESGGGLVQPGGSLRLSCAASGFTFSSYWMSWVRQAPGKGLEWVANIKQEGSEKYYVDSVKGRFTISRDNAKNSLYLQMNSLRAEDTAVYYCARDRAVAGAFDIWGQGTMVTVSSASTKGPSVFPLAPSSKSTSGGTAALGCLVKDYFPEPVTVSWNSGALTSGVHTFPAVLQSSGLYSLSSVVTVPSSSLGTQTYICNVNHKPSNTKVDKKVEPKSCDKTHTCPPCPAPEAAGAPSVFLFPPKPKDTLMISRTPEVTCVVVDVSHEDPEVKFNWYVDGVEVHNAKTKPREEQYNSTYRVVSVLTVLHQDWLNGKEYKCKVSNKALPAPIEKTISKAKGQPREPQVYTLPPSREEMTKNQVSLTCLVKGFYPSDIAVEWESNGQPENNYKTTPPVLDSDGSFFLYSKLTVDKSRWQQGNVFSCSVMHEALHNHYTQKSLSLSPGGGSGGSEVQLVESGGGLVKPGGSLRLSCAASGFTFSDYYMSWIRQAPGKGLEWVSYISSSGSTIYYADSVKGRFTISRDNAKNSLYLQMNSLRAEDTAVYYCARVKPVAGTWDWFDPWGQGTPVTVSS

One experiment deals with T1, human 4-1BB on CHO-K1 cells (human, UniProt Q07011 24-255). As to the kind of experiment: FACS. A general note: Flow cytometry measures light scatter and fluorescence of single cells or particles in a stream.
For B1, the EC50 amounted to 23.8 nM.
As to B2, the EC50 stood at 2.36 nM.
B3 yielded an EC50 of 3.15 nM.
B4 came in with an EC50 of 6.84 nM.

A further experiment addresses T1, human 4-1BB on CHO-K1 cells. As to the kind of experiment: FACS. The source holds these as a separate data set.
Target sequence in this assay (Q07011 24-255): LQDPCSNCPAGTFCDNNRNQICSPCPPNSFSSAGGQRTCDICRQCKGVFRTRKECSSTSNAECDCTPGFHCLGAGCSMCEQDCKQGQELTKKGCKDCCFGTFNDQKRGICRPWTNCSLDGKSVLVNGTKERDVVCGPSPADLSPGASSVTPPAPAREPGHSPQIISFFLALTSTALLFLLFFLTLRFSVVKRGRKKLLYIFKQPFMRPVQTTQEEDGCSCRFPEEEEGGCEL
Regarding B5, a half-maximal response (EC50) required 4.65 nM.
Take B6: the response was half-maximal at 2.06 nM (EC50).
Same read-out and setting: the same measure for B7: 5.06 nM.
Same read-out and setting: then B8, with 12.9 nM.
Same read-out and setting: then B9, with 8.74 nM; and B10, with 5.58 nM.

The target in another experiment is human PD-L1 on CHO-K1 cells (human, UniProt Q9NZQ7 19-290). In words: FACS; MDA-MB-231 cells.
Sequence of human PD-L1 on CHO-K1 cells (Q9NZQ7 19-290): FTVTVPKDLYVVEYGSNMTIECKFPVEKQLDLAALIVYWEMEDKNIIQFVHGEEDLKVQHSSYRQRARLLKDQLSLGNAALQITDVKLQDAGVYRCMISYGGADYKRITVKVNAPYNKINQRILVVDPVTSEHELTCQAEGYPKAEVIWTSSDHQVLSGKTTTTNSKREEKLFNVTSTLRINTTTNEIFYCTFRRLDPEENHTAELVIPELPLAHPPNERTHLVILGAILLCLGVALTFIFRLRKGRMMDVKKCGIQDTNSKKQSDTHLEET
Regarding B5, the EC50 came to 0.203 nM.
On the same count and under the same terms, the same measure for B6: 0.161 nM; for B7: 0.216 nM.
With B1, the EC50 is 0.263 nM.
As for B8, the EC50 is 0.299 nM.
Consider B9, for which the EC50 came to 0.253 nM.
Same read-out and setting: then B2, with 0.206 nM.
The same measure, in the same setting: then B10, with 0.22 nM; and B3, with 0.202 nM; and B4, with 0.257 nM.

The values are drawn from patent publication US20230242658A1 (published 2023).
